{"source": "paper PMC6429369", "about": "“Characterization of Stackebrandtia nassauensis GH 20 Beta-Hexosaminidase, a Versatile Biocatalyst for Chitobiose Degradation” (International Journal of Molecular Sciences, 2019)", "proteins": {"B1": {"name": "SnHex (Stackebrandtia nassauensis GH20 beta-N-acetylhexosaminidase) (Stackebrandtia nassauensis DSM 44728) (protein)", "chain": "VADPSHAKAATPSTIPALGEWTAASGTYTYSESSRLVVDPDHADELTDEAQTAAADLAALTGTEPEVVTGEPETGDVSLALGGGEPLGAEGYSLDVGDTFAITANADAGAFYGTRTLLQLVKQDKQIPAGTATDVPKKPERGLMVDVGRKYMSVEWLKKHIKDLSYAKLNYFHLHLSDTFGFRLESETHPEVTSEDHYTKAEIRELVDLAAKYHVTLVPEIDVPGHVNAMLAQHPELQLEDQSGNKDPYFLDLSNPDAYTLVEDLIKEYLPLFPGPYWHIGADEYVGDYGKYPQLEAYAKEHYGPDAVGKDAYYGFINWANEIVRDGGKTTRMWNDGIKEGDGTIAPEANIVVDYWSTHGIDPQKLLDRGHTVMNASWTPTYYVLGGTDIDRRWLYEDWNPDLFEKTLTIDDPKRNLGSKIHVWCDHPDAQTEDQITEGIRLPLRGLAQQTWGSPKLVEGYDDFVAIDDAIGRAPGFSSL", "notes": "full ORF, 1578 bp, 526 residues, about 58 kDa; pET-30a in E. coli BL21(DE3) lacZ-; Ni-NTA and anion exchange; N-terminal His/thrombin/S-tag/enterokinase by cloning (text elsewhere says C-terminal His6), tags kept; primers translate to N-term VADPSH (after ATG), C-term GFSSL-stop"}}, "key": {"[1]": {"substrate": "CC(=O)N[C@H]1[C@H](Oc2ccc([N+](=O)[O-])cc2)O[C@H](CO)[C@@H](O)[C@@H]1O", "experiment": "purified protein", "format": "biochemical, Stackebrandtia nassauensis", "settings": "50 mM phosphate-citric acid buffer pH 6.0, 37 °C, substrate 0.01-10 mM"}, "[2]": {"substrate": "CC(=O)N[C@H]1[C@H](Oc2ccc([N+](=O)[O-])cc2)O[C@H](CO)[C@H](O)[C@@H]1O", "experiment": "purified protein", "format": "biochemical, Stackebrandtia nassauensis", "settings": "50 mM phosphate-citric acid buffer pH 6.0, 37 °C, substrate 0.01-10 mM"}}, "data": [{"protein": "B1", "values": [{"measurement": "Km", "setting": "[1]", "value": "2470 ± 50", "unit": "µM"}, {"measurement": "Vmax", "setting": "[1]", "value": 57, "unit": "µM/min/mg"}, {"measurement": "kcat", "setting": "[1]", "value": "0.917 ± 0.0615", "unit": "s⁻¹"}, {"measurement": "kcat/Km", "setting": "[1]", "value": "372 ± 33.3", "unit": "M⁻¹ s⁻¹"}, {"measurement": "Km", "setting": "[2]", "value": "3290 ± 320", "unit": "µM"}, {"measurement": "Vmax", "setting": "[2]", "value": 44, "unit": "µM/min/mg"}, {"measurement": "kcat", "setting": "[2]", "value": "0.712 ± 0.0477", "unit": "s⁻¹"}, {"measurement": "kcat/Km", "setting": "[2]", "value": "217 ± 38.3", "unit": "M⁻¹ s⁻¹"}]}]}
